Assay results taken from PMC12218847 (Nature Communications, 2025).

Experiments:
[1] = molecular target: His-tagged potato StISA1 (residues 48–793) (potato); experiment: AUC
AUC = molecular target: the molecule itself; experiment: AUC

His-tagged potato StISA1 (residues 48–793) (enzyme)
stoichiometry N [1]: 2

B1: His-tagged maize ZmISA1 (residues 45–789) (enzyme, UniProt O22637 45-789, looked up)
chain: AAARPVAEAVQAEEDDDDDDEEVAEERFALGGACRVLAGMPAPLGATALRGGVNFAVYSSGASAASLCLFAPGDLKADRVTEEVPLDPLLNRTGNVWHVFIHGDQLHGMLYGYRFDGVFAPERGQYYDVSNVVVDPYAKAVVSRGEYGVPAPGGSCWPQMAGMIPLPYNKFDWQGDLPLGYHQKDLVIYEMHLRGFTKHNSSKTKHPGTYIGAVSKLDHLKELGVNCIELMPCHEFNELEYFSSSSKMNFWGYSTINFFSPMARYSSSGIRDSGCGAINEFKAFVREAHKRGIEVIMDVVFNHTAEGNEKGPILSFRGIDNSTYYMLAPKGEFYNYSGCGNTFNCNHPVVREFIVDCLRYWVTEMHVDGFRFDLASILTRGCSLWDPVNVYGSPMEGDMITTGTPLVAPPLIDMISNDPILGNVKLIAEAWDAGGLYQVGQFPHWNVWSEWNGKYRDTVRQFIKGTDGFAGAFAECLCGSPQLYQAGGRKPWHSINFVCAHDGFTLADLVTYNSKYNLSNGEDNRDGENHNLSWNCGEEGEFASLSVRRLRKRQMRNFFVCLMVSQGVPMFYMGDEYGHTKGGNNNTYCHDHYVNYFRWDKKEEQSSDLYRFCRLMTKFRKECESLGLEDFPTSERLKWHGHQPGKPDWSEASRFVAFTMKDETKGEIYVAFNTSHLPVVVGLPERSGFRWEPVVDTGKEAPYDFLTDGLPDRAVTVYQFSHFLNSNLYPMLSYSSIILVLRPDV
stoichiometry N (AUC): 2

B2: Arabidopsis AtISA1 (residues 44–783) with C-terminal 6×His-tag (enzyme, UniProt O04196 44-783, looked up)
chain: AKDRRSNEAENIAVVEKPLKSDRFFISDGLPSPFGPTVRDDGVNFSVYSTNSVSATICLISLSDLRQNKVTEEIQLDPSRNRTGHVWHVFLRGDFKDMLYGYRFDGKFSPEEGHYYDSSNILLDPYAKAIISRDEFGVLGPDDNCWPQMACMVPTREEEFDWEGDMHLKLPQKDLVIYEMHVRGFTRHESSKIEFPGTYQGVAEKLDHLKELGINCIELMPCHEFNELEYYSYNTILGDHRVNFWGYSTIGFFSPMIRYASASSNNFAGRAINEFKILVKEAHKRGIEVIMDVVLNHTAEGNEKGPIFSFRGVDNSVYYMLAPKGEFYNYSGCGNTFNCNHPVVRQFILDCLRYWVTEMHVDGFRFDLGSIMSRSSSLWDAANVYGADVEGDLLTTGTPISCPPVIDMISNDPILRGVKLIAEAWDAGGLYQVGMFPHWGIWSEWNGKFRDVVRQFIKGTDGFSGAFAECLCGSPNLYQGGRKPWHSINFICAHDGFTLADLVTYNNKNNLANGEENNDGENHNYSWNCGEEGDFASISVKRLRKRQMRNFFVSLMVSQGVPMIYMGDEYGHTKGGNNNTYCHDNYMNYFRWDKKEEAHSDFFRFCRILIKFRDECESLGLNDFPTAKRLQWHGLAPEIPNWSETSRFVAFSLVDSVKKEIYVAFNTSHLATLVSLPNRPGYRWEPFVDTSKPSPYDCITPDLPERETAMKQYRHFLDANVYPMLSYSSIILLLSPIKDP
stoichiometry N (AUC): 2

B3: His-tagged OsISA1 (amino acids 55–803) (enzyme, Oryza sativa (rice), UniProt D0TZF0 55-803, looked up)
chain: SVASAVEVGVGEDEEEGVEEEEEEVEAVVMPERYALGGACRVLAGMPAPLGATALDGGVNFAVYSAGASAASLCLFTPDDLEADEVTEEVPLDPLFNRTGNVWHVFIEGELHNMLYGYRFDGMFAPHCGQYFDVSNVVVDPYAKAVISRGEYGVPGPGGDCWPQMAGMIPLPYSTFDWQGDLPLRYPQKDLVIYEMHLRGFTKHSSSNVEHPGTYIGAISKLDYLKELGVNCVELMPCHEFNELEYFSCSSKMNFWGYSTINFFSPMIRYSSGGIRNCGRDAINEFKTFVREAHKRGIEVIMDVVFNHTAEGNEKGPILSFRGIDNSTYYMLAPKGEFYNYSGCGNTFNCNHPVVREFIVDCLRYWVTEMHVDGFRFDLASIMTRGCSLWDPVNVYGSPVEGDMTTTGTPLATPPLIDMISNDPILGDVKLIAEAWDAGGLYQVGQFPHWKIWSEWNGKYRDIVRQFIKGTDGFAGGFAECLCGSPHLYQAGGRKPWHSINFVCAHDGFTLADLVTYNKKYNSSNGEDNRDGENHNLSWNCGEEGEFAGLSVKRLRKRQMRNFFVSLMVSQGVPMFYMGDEYGHTKGGNNNTYCHDHYVNYFRWDKKEESSDLQRFCSLMTKFRKQCESLGLADFPTAQRLHWHGHQPGKPDWSETSRFVAFSTKDETKGEIYVAFNASHLPAVVGLPERPGYRWEPLVDTGKPAPYDFLTDDLPDRAHAVHLFSHFLNSNLYPMLSYSSIILELQPDD
stoichiometry N (AUC): 2
